B1: PDZ2 domain of human Discs Large 1 (DLG1), residues 315–410 (domain or fragment, UniProt Q12959 315-410, looked up)
chain: EKIMEIKLIKGPKGLGFSIAGGVGNQHIPGDNSIYVTKIIEGGAAHKDGKLQIGDKLLAVNNVCLEEVTHEEAVTALKNTSDFVYLKVAKPTSMYM
notes: human Discs Large 1/Synapse Associated Protein 97 (DLG1), PDZ2 domain, residues 315-410; cloned into a pET28a-derived vector; also called WT PDZ2; second PDZ domain of DLG1; source: E. coli BL21 (DE3), purified (Ni2+-NTA, Superdex 200 gel filtration)
B2: GST-tagged C-terminal 11 residues of human Adenomatous Polyposis Coli (APC), residues 2833–2843 (peptide)
chain: RHSGSYLVTSV
notes: human Adenomatous Polyposis Coli (APC), C-terminal 11 residues, 2833-2843 of the 2,843-residue protein; cloned into pGEX4T1; also called GST-APC-C11; APC-C11; not shown: GST, N-terminal, kept
B3: PDZ2 domain of human DLG1 with the point mutation Q340P (domain or fragment, UniProt Q12959 315-410, looked up)
chain: B1 chain with Q26P
notes: human DLG1 PDZ2 domain, residues 315-410, Q340P; also called PDZ2 Q340P; PDZ2-Q340P; source: E. coli BL21 (DE3), purified

The target in assay [1] is B2. Briefly: ITC; ITC200, 25°C, 50 mM HEPES pH 7.5, 100 mM NaCl; PDZ domain (400 µM) injected 20 times in 2 µl aliquots into 40 µM GST-tagged APC-C11 or APC-C4; single site binding model. The note with it: both partners purified. In general terms: Isothermal titration calorimetry measures the heat released or taken up as one component is titrated into another.
Assay [2] deals with B3. Described as above. The note with it: both partners purified.

From publication PMC3157396, “Molecular Basis for the Recognition of Adenomatous Polyposis Coli by the Discs Large 1 Protein” (PLoS ONE, 2011) come the findings set out here.

Changes are numbered by the printed parent chain. Names and notes keep the numbering of the source.

As to B1, in assay [1], the dH was -7.09 ± 0.19 kcal/mol and the “stoichiometry N” value was determined as 0.916 ± 0.018. With B2, the Kd in assay [2] is 9.8 ± 1.11 µM. Take B3: in assay [1], the dH is -6.76 ± 0.27 kcal/mol and the “stoichiometry N” value came to 1.04 ± 0.03.

One may read the stoichiometry N as a count of units in the complex or per binding partner. By Kd is commonly meant the concentration at which binding is half-saturated.
